Experiment: label from the status in PepcDB records

Row | Sequence | protein production
1 | MDRIDAMKVFVAAIDEGSLAGAARRLKRSPTAVSRALSFLEAHVGVELLHRTTRTLKLSEAGQRYAAACRRVLTDLEEADMLAGGERSAPRGMLTISSPPILGEEILRPILDDFLDLYPTVSVRLLLLDRFVNLVDEGVDIALRIGQLADSSLISTRLGGDVRRVVVASPRYLANHPRIEEPADLDKHQILAFTNFGLESWSFTPAKGSSVPRTIQFTPRCIVNSVRAAAASAAAGRGLTRLYSYHVAEYVRDGRLEIVLADAEHPPLPAHLIAPQGRMSVPKVRAFVDFAAPRLRSEFARMAAEAGTLT | failed
2 | MDRLKAMQVFVEVADRGSLSAAAMHLGMSRAMVSRYLAELEAWVGVRLLHRTTRRLSLTPAGSETLPRCRRMLEMVGDMREAVAAPDAEPRGLLRVTAAMSFGGAQLAEAVAEFVRRHPAASIDLLLVDRAVNLVEERVDLAVRITNDLDPNLIGRRLADCRSVVCAAPQYLQQHGAPARAEDLSLHNCLTHSYFGRSLWRFERAGEPVEVPVGGNITANETDVLMRAALAGAGIVMLPTYLAAGQIAAGTLRPLLPDCAPPVLGIHGVYVSRKQMPLILRTMLDFLAERFNPAPWDAALEGR | failed
3 | MDRLSDFERLTAEIKSLKESLKEKIDKVLSRSVKEASETSEEKKEQSEIAEEGNEDGDNVLVSSLEDEIDSKEEEVLAASCRLLNMFRELDCTFDGPERRMGRLNLNEITEACSRHIVTAMETEQETLNRAISISNAWKHQVSALFNGGIEGEQIKKDLQRLKASSGDEVYWLIRKAFREARVALRTNVYMKPWNLEERREATLMELLGPLPEIARRRLQGRPRRDDCC | failed
4 | MDRMAVAEEQILLERVRRKIEEVNASGQSQLSPIQEHISFTLLIYAPLIDDELQQAYFKCSNECFEKRRKPEVTTNCVELCRVPVAKSQQQFDSDMAKFQDRMNRSLMVCQDKFEAAKLLNMNRIDAAKDMEGCVNDAAAALLGG | failed
5 | MDRRLKKCSTSTDVESVHDVSKVTDPLQKAKRELDNVEIKEKQKKQKNQNETSEKETKKFSTVYEKFNDTIKELDRVSGTCPIRPAIPFTPPKEKVEPIYHNECNFDDKAHLGVSDSALFVQGFDTSHPRHEIKTALWNHFSSCGKVYLIYVPIACSTGASVGYAFIDMKNETKGLTLNGSHLGGRKIDVMFAIDREEFYFSSNLKHCQRCRNYRPWLVLKAMSDACFEYHQRIKPRIVGTPHSKIGRFTAIIGRRSYS | failed
6 | MDRRVTRRGVLAAAGIALAGCTDNGDDQPVRTPLPDEEREPLSNTWRSLGRDDGNTGAVAGIAGPYIEVAAEWQFDVGGAVIGGPVFDENTLYAGTADGEVYALDTHVGAERWSFSADGPVSTTPVVDDGLVAVGSSDGHIYGIDADDGTELWRFDTAVRVDSSPAIDDRYVYAGSVSNAAYAIDRTNGELHWRFDADGSVLASPAVGDETVYVASTDHNVYAIDPDSGEADWQFTTGGEISVAPTLVGDRLYVGSRDSSVYAIDTGSGEGRWSFGLEAAVASSPAVLGDRLFVGAADHNLYALGIGDDSPEGLWRSPTPGAAVGNPAVTDDHVFFGGRDGAVRALRTDGGDRSWEHDVDGGIQGGPALTDRWLYVGTDAGTVYAFRAG | failed
7 | MDRSYAVFGLGEFGRSVSYELMEIGADVLAVDKNENKITAIADDVTMAISIDALNEMAYEKLGLNNMDGVVVSMSGNLSASIMAIIAAKDAGVPLVIAKASDDTQRTIFKKVGADRVVIPERDGAVRTAHNLVAKNFLDYIELSDKISIIEINVKDEWLHKPLAELNLRSKYGLNVIAIRRNNDLQTDIGPNLTFDKGDTILVVTDKHDLGL | failed
8 | MDRTLTHQPQEYAVSVSVGEVKLKGNLVIPNGATGIVLFAHGSGSSRYSPRNRYVAEVLQQAGLATLLIDLLTQEEEEIDLRTRHLRFDIGLLASRLVGATDWLTHNPDTQHLKVGYFGASTGGGAALVAAAERPETVQAVVSRGGRPDLAPSALPHVKAPTLLIVGGYDLPVIAMNEDALEQLQTSKRLVIIPRASHLFEEPGALTAVAQLASEWFMHYLR | not failed
9 | MDSASQDINLNSPNKGVLSDFMTDVPVDPGVVHRTPVVEGLTEGEEEELRAELAKVEEEIVTLRQVLAAKERHCGELKRRLGLSTLGELKQNLSRSWHDVQVSTAYVKTSEKLGEWNEKVTQSDLYKKTQETLSQAGQKTSAALSTMGSAISRKLGDMSSYSIRHSISMPVMRNSATFKSFEDRVGTIKSKVVGGRENGSDNLPPSPGSGDQTLPDHAPF | failed
10 | MDSDFHVKPEIRILGIDDSALLNEKVMIVGTVFRGGDWIDGVLRSEITRDGLDATEVMVTMIKNSRHHNQLRVIMLDGITYGGFNVVDIEELYRETGLPVIVIMRSCPDFEKIRSALKHFSDGEERWKIIKKAGKIEKLITGRNGTPIYIQKAGIGAKNVEKIIRLTSIRSSIPEPLRVAHLIATGITLGESRGKA | failed
11 | MDSGFTLRAPRNDKRRNPMPAILGTGEHRYRVVENFAKLPDGWQLTDVAAVAVDSLDRVYVFNRGAHPMVVLDREGNFLRSWGEGLFSRAHGLHIDADDNLYCTDDGDHTVRKCTSDGKVLLTIGIPAKPAPFMSGEPFHRCTHTALSPKGEIYVSDGYGNARVHKFTPDGKLIKSWGEPGTDPGQFNIVHNIATDSDGWVYVADRENHRVQVFNGEGKYETQWNNLHRPCALCCCGGRSPTFVIGELGPGLDINRNVPNLGPRLSIVDAKGNRIARLGGEEGPGVASGKFLAPHGIALDSKGDIYVGEVGVTNWATSFPDQEMPAVVRATRCLQKLERVRELEHHHHHH | failed
12 | MDSGPLWDANPTPRGTLSAPNATTPWLGRDEELAKVEIGVLATVLVLATGGNLAVLLTLGQLGRKRSRMHLFVLHLALTDLAVALFQVLPQLLWDITYRFQGPDLLCRAVKYLQVLSMFASTYMLLAMTLDRYLAVCHPLRSLQQPGQSTYLLIAAPWLLAAIFSLPQVFIFSLREVIQGSGVLDCWADFGFPWGPRAYLTWTTLAIFVLPVTMLTACYSLICHEICKNLKVKTQAWRVGGGGWRTWDRPSPSTLAATTRGLPSRVSSINTISRAKIRTVKMTFVIVLAYIACWAPFFSVQMWSVWDKNAPDEDSTNVAFTISMLLGNLNSCCNPWIYMGFNSHLLPRPLRHLACCGGPQPRMRRRLSDGSLSSRHTTLLTRSSCPATLSLSLSLTLSGRPRPEESPRDLELADGEGTAETIIF | failed
13 | MDSKQQRIGVIGTGAIGGFYGLMLAHAGHDVHFLLRSEFEAVNRAGLSLNSAVHGFRRLAPVQAYHSAQDMPPCDWLLVGAKTTGNDELAPLIRAAAAPGAKVLLLQNGLGVEERLRPLLPESLHLLGGLCFICVHRGEPGVIEHQAYGGVNLGYHSGPADERRRREIVEEGAALFRESGLESTAMPDLEQARWQKLVWNIPYNGLSVLLKSSTAPLMANADSRSLIEAIMEEVIGAAGACGFILPEGYADQLLAATERMPDYRPSMYHDFAHGRPLELAAIYAAPLARAAAAGYR | failed
14 | MDSLRFNLQQSPFQLKPRILRPRITNISNRIDETDPRPSSSAGRIQRLVLNNEGRTKLNADPDREFYSYPRFVNHVDDSFISSLTELYRNRLRPGSTVLDLMSSWVSHLPEEVKYEKVVGHGLNAQELARNPRLDYFFVKDLNEDQKFEFEDKYFDAVLCSVGVQYLQQPEKVFAEVYRVLKPGGVLIVSFSNRMFYEKAIRVWRDGTEYSRIQLVVQYFQSIEGFTQPEIIRQQPGAQISVLTRLMGFIGLASTPDPFNAVIAYKNFKPIYE | failed
15 | MDSQELKTLINYYCQERYFHHVLLVASEGIKRYGSDPVFRFYHAYGTLMEGKTQEALREFEAIKNKQDVSLCSLLALIYAHKMSPNPDREAILESDARVKEQRKGAGEKALYHAGLFLWHIGRHDKAREYIDRMIKISDGSKQGHVLKAWLDITRGKEPYTKKALKYFEEGLQDGNDTFALLGKAQCLEMRQNYSGALETMNQIIVNFPSFLPAFVKKMKLQLALQNWDQTVETAQRLLLQDSQNVEALRMQALYYVCREGDIEKASTKLENLGNALDAMEPQNAQLFYNITLAFSRTCGRSQLILQKIQTLLERAFSLNPQQSEFATELGYQMILQGRVKEALKWYKTAMTLDETSVSALVGFIQCQLIEGQLQDADQQLEFLNEIQQSIGKSAELIYLHAVLAMKKNKRQEEVINLLNDVLDTHFSQLEGLPLGIQYFEKLNPDFLLEIVMEYLSFCPMQVSNYGTYFQGCVYLMFYERT | failed
16 | MDSQTGVTRRRLLLGLGSGLGLLGGGGAYVYWSLQGDSGEYTAPNSQPVVTTRGLLDSAEEPAAETEGAWSFDDASEVFLFVHGFSTDAETARDNAYTAQLALGEYTSAPVVAYSWDSDVEWEQAKDNAVANRTLLAQWLMEWAETDGRPVHVLAHSLGARVTGETLRVLAEQGATDVLASVSLLGGAIPYDSVVQGGRYGDAIEAVDAPVSNFYSQNDKVLSWVYRASDRTHAVGHAGTRDAGPLPDGYQDVNVTDLVADHYSYFEPGEGCLARVVAEIE | failed
17 | MDSRLAMFAPCPRGLEQILADELLALGAGDIAPADGGVAFAGDARLMMAVNLHSRTASRVLLRLAHGGYHAEQDIYRLAMSVDWPRWFEVSRTIKLKADGIAARVKSLDYIGLTVKDAICDRFRQAHLGRPSVDTRHPDVRVNVFLTADEATIYLDTSGEPLFKRGWREETGEAPLRENLAAGILLLAGYDGSQPLLDPMCGSGTFLVEAADIALNRAPGRARRFGFEALSSFDSAAWEKLQQDARKAEQPASSLAIRGSDRSQAMVNIARANLERAGLAELVEVSAADVTASRPHAEHGLIVSNPPYGVRLEEQDQLAAWYPELGDWLKAHFAGWTACLFSGDLRLGKLIRLAPKRRTPLFNGSLQCRLFVINMVEGSARKQKDGDEAEIETGDEQ | failed
18 | MDSSREANRKHDAEEKREDEKTSLMEVNLMVVLLSQLSTKKEDENGLEKERRDHVAHEARESRARANKRFMKDTKLMEKRTHVLQPMAKEFRHYRKM | failed
19 | MDTCGVGYVALGEAGPVGNMTVVDSPGQEVLNQLDVKTSSEMTSAEASVEMSLPTPLPGFEDSPDQRRLPPEQESLSRLEQPDLSSEMSKVSKPRASKPGRKRGGRTRKGPKRPQQPNPPSAPLVPGLLDQSNPLSTPMPKKRGRKSKAELLLLKLSKDLDRPESQSPKRPPEDFETPSGERPRRRAAQVALLYLQELAEELSTALPAPVSCPEGPKVSSPTKPKKIRQPAACPGGEEVDGAPRDEDFFLQVEAEDVEESEGPSESSSEPEPVVPRSTPRGSTSGKQKPHCRGMAPNGLPNHIMAPVWKCLHLTKDFREQKHSYWEFAEWIPLAWKWHLLSELEAAPYLPQEEKSPLFSVQREGLPEDGTLYRINRFSSITAHPERWDVSFFTGGPLWALDWCPVPEGAGASQYVALFSSPDMNETHPLSQLHSGPGLLQLWGLGTLQQESCPGNRAHFVYGIACDNGCIWDLKFCPSGAWELPGTPRKAPLLPRLGLLALACSDGKVLLFSLPHPEALLAQQPPDAVKPAIYKVQCVATLQVGSMQATDPSECGQCLSLAWMPTRPHQHLAAGYYNGMVVFWNLPTNSPLQRIRLSDGSLKLYPFQCFLAHDQAVRTLQWCKANSHFLVSAGSDRKIKFWDLRRPYEPINSIKRFLSTELAWLLPYNGVTVAQDNCYASYGLCGIHYIDAGYLGFKAYFTAPRKGTVWSLSGSDWLGTIAAGDISGELIAAILPDMALNPINVKRPVERRFPIYKADLIPYQDSPEGPDHSSASSGVPNPPKARTYTETVNHHYLLFQDTDLGSFHDLLRREPMLRMQEGEGHSQLCLDRLQLEAIHKVRFSPNLDSYGWLVSGGQSGLVRIHFVRGLASPLGHRMQLESRAHFNAMFQPSSPTRRPGFSPTSHRLLPTP | failed
20 | MDTDNNLTFVDFYYRWLEITKLDIINDTSYKRYITAIKAFKDCFGNKLISDIDSLSYQKFLKDYGRGHFLNNGQLRPRTSNTVSKMNNCLKQAFESAVEQGYIKKNLEHHHHHH | failed
21 | MDTEMLIDKYQLNDSEAAVLRFMDKNRDCLKSLGIREVAKASYVSTTAIINMAKKIGYSGYSELVFAYGNKHSSISFPENFSNEEKDEFIRLLSRYREKRIMVLGSGFSQNIANHFSEMLNLYGFRATANSHLEFLRENVEKDVLIFIVSNSGDTLRLAELVKLAKNHHIDLIAFVGEKKSKIGQLATLTISTETYNPQVVSEYQPNLFFGTALNQFELLLSEALKSIFI | not failed
